Reference: US20140087995A1 (published 2014)
Numbering of substitutions follows the chain as printed. Numbered stars: 1 amine (or outer) side, 2 acyl side, 3 side chain; on linkers, the order of the positions; unused ones are H or OH. Bridge positions count the residues as written; N and C are the ends. Side chains are listed from the residue outwards. Ends that are not written are not given here. * marks the point of attachment. C20 diacid = O=C(O)CCCCCCCCCCCCCCCCCCC(=O)*; γGlu = O=C(O)[C@H](CCC(=O)[*:2])N[*:1]; AEEA = NCCOCCOCC(=O)O

B1: N^α1-[(4S)-4-carboxy-4-(19-carboxynonadecanoylamino)butanoyl]-[Glu14,Arg17,Pro21,Pro27]-h-amylin (peptide)
peptide: KCNTATCATQRLAEFLRHSSPNFGAIPSSTNVGSNTY
modifications: C20 diacid-gGlu on the alpha amino group of the N-terminal residue; disulfide bridge Cys2-Cys7; C-terminal amide
notes: also called compound 9
B2: N^α1-[(4S)-4-carboxy-4-(19-carboxynonadecanoylamino)butanoyl]-[Arg17,Pro21,Pro27,Lys35]-h-amylin (peptide)
peptide: B1 peptide with E14N, N35K
modifications: C20 diacid-gGlu on the alpha amino group of the N-terminal residue; disulfide bridge Cys2-Cys7; C-terminal amide
notes: also called compound 34
B3: N^α1-[(4S)-4-carboxy-4-(19-carboxynonadecanoylamino)butanoyl]-[Arg17,Pro21,Pro27,Glu35]-h-amylin (peptide)
peptide: B1 peptide with E14N, N35E
modifications: C20 diacid-gGlu on the alpha amino group of the N-terminal residue; disulfide bridge Cys2-Cys7; C-terminal amide
notes: also called compound 23
B4: N^α1-[2-[2-[2-[[2-[2-[2-[[(4S)-4-carboxy-4-(19-carboxynonadecanoylamino)butanoyl]amino]ethoxy]ethoxy]acetyl]amino]ethoxy]ethoxy]acetyl]-[Arg17,Pro21,Pro27]-h-am … (peptide)
peptide: B1 peptide with E14N
modifications: C20 diacid-gGlu-2xOEG on the alpha amino group of the N-terminal residue; disulfide bridge Cys2-Cys7; C-terminal amide
notes: also called compound 24
B5: N^α1-[2-[2-[2-[[2-[2-[2-[[(4S)-4-carboxy-4-(19-carboxynonadecanoylamino)butanoyl]amino]ethoxy]ethoxy]acetyl]amino]ethoxy]ethoxy]acetyl]-[Glu14,Arg17,Pro21,Pro27 … (peptide)
peptide: {C20 diacid-γGlu-AEEA-AEEA}-KCNTATCATQRLAEFLRHSSPNFGAIPSSTNVGSNTP-NH2
modifications: disulfide 2-7
SMILES: CC[C@H](C)[C@H](NC(=O)[C@H](C)NC(=O)CNC(=O)[C@H](Cc1ccccc1)NC(=O)[C@H](CC(N)=O)NC(=O)[C@@H]1CCCN1C(=O)[C@H](CO)NC(=O)[C@H](CO)NC(=O)[C@H](Cc1c[nH]cn1)NC(=O)[C@H](CCCNC(=N)N)NC(=O)[C@H](CC(C)C)NC(=O)[C@H](Cc1ccccc1)NC(=O)[C@H](CCC(=O)O)NC(=O)[C@H](C)NC(=O)[C@H](CC(C)C)NC(=O)[C@H](CCCNC(=N)N)NC(=O)[C@H](CCC(N)=O)NC(=O)[C@@H](NC(=O)[C@H](C)NC(=O)[C@@H]1CSSC[C@H](NC(=O)[C@H](CCCCN)NC(=O)COCCOCCNC(=O)COCCOCCNC(=O)CC[C@H](NC(=O)CCCCCCCCCCCCCCCCCCC(=O)O)C(=O)O)C(=O)N[C@@H](CC(N)=O)C(=O)N[C@@H]([C@@H](C)O)C(=O)N[C@@H](C)C(=O)N[C@@H]([C@@H](C)O)C(=O)N1)[C@@H](C)O)C(=O)N1CCC[C@H]1C(=O)N[C@@H](CO)C(=O)N[C@@H](CO)C(=O)N[C@H](C(=O)N[C@@H](CC(N)=O)C(=O)N[C@H](C(=O)NCC(=O)N[C@@H](CO)C(=O)N[C@@H](CC(N)=O)C(=O)N[C@H](C(=O)N1CCC[C@H]1C(N)=O)[C@@H](C)O)C(C)C)[C@@H](C)O
notes: also called compound 20
B6: N^α1 N^α1-[(4S)-4-carboxy-4-[[(4S)-4-carboxy-4-(19-carboxynonadecanoylamino)butanoyl]amino]butanoyl]-[Glu14,Arg17,Pro21,Pro27]-h-amylin (peptide)
peptide: {C20 diacid-γGlu-γGlu}-KCNTATCATQRLAEFLRHSSPNFGAIPSSTNVGSNTY-NH2
modifications: disulfide 2-7 (inferred)
notes: analogue of human amylin; the name is printed with N^α1 twice; also called compound 15
B7: N^ε-[2-[2-[2-[[(4S)-4-carboxy-4-(19-carboxynonadecanoylamino)butanoyl]amino]ethoxy]ethoxy]acetyl]Lys[Arg1,Arg17,Pro21,Pro27,His35]-h-amylin (peptide)
peptide: K([AEEA-γGlu-C20 diacid])RCNTATCATQRLANFLRHSSPNFGAIPSSTNVGSHTY-NH2
modifications: disulfide 3-8; N-terminus assumed
SMILES: CC[C@H](C)[C@H](NC(=O)[C@H](C)NC(=O)CNC(=O)[C@H](Cc1ccccc1)NC(=O)[C@H](CC(N)=O)NC(=O)[C@@H]1CCCN1C(=O)[C@H](CO)NC(=O)[C@H](CO)NC(=O)[C@H](Cc1c[nH]cn1)NC(=O)[C@H](CCCNC(=N)N)NC(=O)[C@H](CC(C)C)NC(=O)[C@H](Cc1ccccc1)NC(=O)[C@H](CC(N)=O)NC(=O)[C@H](C)NC(=O)[C@H](CC(C)C)NC(=O)[C@H](CCCNC(=N)N)NC(=O)[C@H](CCC(N)=O)NC(=O)[C@@H](NC(=O)[C@H](C)NC(=O)[C@@H]1CSSC[C@H](NC(=O)[C@H](CCCNC(=N)N)NC(=O)[C@@H](N)CCCCNC(=O)COCCOCCNC(=O)CC[C@H](NC(=O)CCCCCCCCCCCCCCCCCCC(=O)O)C(=O)O)C(=O)N[C@@H](CC(N)=O)C(=O)N[C@@H]([C@@H](C)O)C(=O)N[C@@H](C)C(=O)N[C@@H]([C@@H](C)O)C(=O)N1)[C@@H](C)O)C(=O)N1CCC[C@H]1C(=O)N[C@@H](CO)C(=O)N[C@@H](CO)C(=O)N[C@H](C(=O)N[C@@H](CC(N)=O)C(=O)N[C@H](C(=O)NCC(=O)N[C@@H](CO)C(=O)N[C@@H](Cc1c[nH]cn1)C(=O)N[C@H](C(=O)N[C@@H](Cc1ccc(O)cc1)C(N)=O)[C@@H](C)O)C(C)C)[C@@H](C)O
notes: Synthetic acylated analogue of human amylin, extended by Lys at the N-terminus; also called compound 45
B8: N^-1-[(4S)-4-carboxy-4-(19-carboxynonadecanoylamino)butanoyl]-Gly[Arg1,Arg17,Pro21,Pro27]-h-amylin (peptide)
peptide: {C20 diacid-γGlu}-GRCNTATCATQRLANFLRHSSPNFGAIPSSTNVGSNTY-NH2
modifications: disulfide 3-8
SMILES: CC[C@H](C)[C@H](NC(=O)[C@H](C)NC(=O)CNC(=O)[C@H](Cc1ccccc1)NC(=O)[C@H](CC(N)=O)NC(=O)[C@@H]1CCCN1C(=O)[C@H](CO)NC(=O)[C@H](CO)NC(=O)[C@H](Cc1c[nH]cn1)NC(=O)[C@H](CCCNC(=N)N)NC(=O)[C@H](CC(C)C)NC(=O)[C@H](Cc1ccccc1)NC(=O)[C@H](CC(N)=O)NC(=O)[C@H](C)NC(=O)[C@H](CC(C)C)NC(=O)[C@H](CCCNC(=N)N)NC(=O)[C@H](CCC(N)=O)NC(=O)[C@@H](NC(=O)[C@H](C)NC(=O)[C@@H]1CSSC[C@H](NC(=O)[C@H](CCCNC(=N)N)NC(=O)CNC(=O)CC[C@H](NC(=O)CCCCCCCCCCCCCCCCCCC(=O)O)C(=O)O)C(=O)N[C@@H](CC(N)=O)C(=O)N[C@@H]([C@@H](C)O)C(=O)N[C@@H](C)C(=O)N[C@@H]([C@@H](C)O)C(=O)N1)[C@@H](C)O)C(=O)N1CCC[C@H]1C(=O)N[C@@H](CO)C(=O)N[C@@H](CO)C(=O)N[C@H](C(=O)N[C@@H](CC(N)=O)C(=O)N[C@H](C(=O)NCC(=O)N[C@@H](CO)C(=O)N[C@@H](CC(N)=O)C(=O)N[C@H](C(=O)N[C@@H](Cc1ccc(O)cc1)C(N)=O)[C@@H](C)O)C(C)C)[C@@H](C)O
notes: Synthetic acylated analogue of human amylin, extended by Gly at the N-terminus; also called compound 46
B9: N^ε1-[(4S)-4-carboxy-4-(19-carboxynonadecanoylamino)butanoyl]-[Arg17,Pro21,Pro27]-h-amylin (peptide)
peptide: K([γGlu-C20 diacid])CNTATCATQRLANFLRHSSPNFGAIPSSTNVGSNTY-NH2
modifications: disulfide 2-7; N-terminus assumed
SMILES: CC[C@H](C)[C@H](NC(=O)[C@H](C)NC(=O)CNC(=O)[C@H](Cc1ccccc1)NC(=O)[C@H](CC(N)=O)NC(=O)[C@@H]1CCCN1C(=O)[C@H](CO)NC(=O)[C@H](CO)NC(=O)[C@H](Cc1c[nH]cn1)NC(=O)[C@H](CCCNC(=N)N)NC(=O)[C@H](CC(C)C)NC(=O)[C@H](Cc1ccccc1)NC(=O)[C@H](CC(N)=O)NC(=O)[C@H](C)NC(=O)[C@H](CC(C)C)NC(=O)[C@H](CCCNC(=N)N)NC(=O)[C@H](CCC(N)=O)NC(=O)[C@@H](NC(=O)[C@H](C)NC(=O)[C@@H]1CSSC[C@H](NC(=O)[C@@H](N)CCCCNC(=O)CC[C@H](NC(=O)CCCCCCCCCCCCCCCCCCC(=O)O)C(=O)O)C(=O)N[C@@H](CC(N)=O)C(=O)N[C@@H]([C@@H](C)O)C(=O)N[C@@H](C)C(=O)N[C@@H]([C@@H](C)O)C(=O)N1)[C@@H](C)O)C(=O)N1CCC[C@H]1C(=O)N[C@@H](CO)C(=O)N[C@@H](CO)C(=O)N[C@H](C(=O)N[C@@H](CC(N)=O)C(=O)N[C@H](C(=O)NCC(=O)N[C@@H](CO)C(=O)N[C@@H](CC(N)=O)C(=O)N[C@H](C(=O)N[C@@H](Cc1ccc(O)cc1)C(N)=O)[C@@H](C)O)C(C)C)[C@@H](C)O
notes: Synthetic acylated analogue of human amylin; also called compound 48

target: T1, human amylin receptor (amylin 3(a) receptor: human calcitonin receptor with RAMP-3) (human, UniProt P30988 25-474; O60896 24-148); assay: cell-based or functional assay
T1 sequence (looked up) 1: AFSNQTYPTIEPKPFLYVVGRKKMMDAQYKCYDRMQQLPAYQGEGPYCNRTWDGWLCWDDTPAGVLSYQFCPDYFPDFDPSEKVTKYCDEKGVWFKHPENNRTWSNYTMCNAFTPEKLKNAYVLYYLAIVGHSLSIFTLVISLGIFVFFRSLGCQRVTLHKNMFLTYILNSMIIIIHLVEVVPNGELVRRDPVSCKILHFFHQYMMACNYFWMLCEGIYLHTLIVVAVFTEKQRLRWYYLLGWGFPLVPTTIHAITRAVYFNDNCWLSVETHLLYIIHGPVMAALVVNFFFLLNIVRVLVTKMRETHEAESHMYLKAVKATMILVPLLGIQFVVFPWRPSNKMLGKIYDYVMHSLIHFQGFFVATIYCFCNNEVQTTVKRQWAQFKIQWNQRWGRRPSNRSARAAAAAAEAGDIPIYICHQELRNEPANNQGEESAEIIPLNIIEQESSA
T1 sequence (looked up) 2: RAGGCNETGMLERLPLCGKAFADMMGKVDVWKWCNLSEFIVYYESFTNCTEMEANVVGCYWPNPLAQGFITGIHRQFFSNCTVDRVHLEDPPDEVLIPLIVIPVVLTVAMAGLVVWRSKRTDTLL

Row | Binder | hAmylin-R funct. EC50
1 | B1 | 0.175 nM
2 | B2 | 0.313 nM
3 | B3 | 0.34 nM
4 | B4 | 0.433 nM
5 | B5 | 0.08 nM

target: T2, human calcitonin receptor (human, UniProt P30988 25-474); assay: cell-based or functional assay
T2 sequence (looked up): T1 sequence (looked up) 1

Row | Binder | Ratio hCT/hAmylin funct. | hCTR funct. EC50
6 | B1 | 7.4 | 1.29 nM
7 | B2 | 8.4 | 2.62 nM
8 | B3 | 8.9 | 3.02 nM
9 | B4 | 23.1 | 10 nM
10 | B5 | 3.6 | 0.285 nM

target: T3, human calcitonin receptor (human, UniProt P30988 25-474); assay: IC50 on human calcitonin receptor divided by IC50 on human amylin receptor (SPA competition)
T3 construct: whole, on cells; membranes of stably transfected BHK cells (Assay VII); also called hCTR; hCT
T3 sequence (looked up): T1 sequence (looked up) 1
Description: The resulting pellet was resuspended, homogenized and centrifuged (20.000 rpm, 15 min) in a buffer containing 20 mM Na-HEPES and 0.1 mM EDTA (pH 7.4, buffer 2). The resulting pellet was resuspended in buffer 2 and protein concentration was measured (BCA protein Assay, Pierce). The homogenate was kept cold during the whole procedure. The membranes were kept at −80° C. until use. The assay was performed in a 384 well Optiplate (PerkinElmer) in a total volume of 40 ul. Membranes were mixed with SPA beads. Final concentration of membranes 35 ng/μL final and SPA beads was 0.05 mg/well. Test-compounds were dissolved in DMSO and further diluted in assay buffer (50 mM Hepes, pH 7.4, 1 mM CaCl2, 5 mM MgCl₂, 0.1% OA and 0.02% Tween20). […] The final mixture was incubated with shaking at 400 rpm for 120 min at 25° C. prior to centrifugation (1500 rpm, 10 min). Samples were analyzed on TopCounter™ (Packard). The IC₅₀ was calculated using (one site binding competition analysis) GraphPad Prism5 as a measure of receptor affinity.
Membranes were prepared in the following way; the cells were rinsed with PBS and incubated with Versene for approximately 5 min before harvesting. The cells were flushed with PBS and the cell-suspension was centrifuged for 5 min at 1000 rpm. Cells were homogenized (Ultrathurrax) in a buffer containing 20 mM Na-HEPES and 10 mM EDTA (pH 7.4) and centrifuged at 20.000 rpm for 15 min. The resulting pellet was resuspended, homogenized and centrifuged (20.000 rpm, 15 min) in a buffer containing 20 mM Na-HEPES and 0.1 mM EDTA (pH 7.4, buffer 2). The resulting pellet was resuspended in buffer 2 and protein concentration was measured (BCA protein Assay, Pierce). The homogenate was kept cold during the whole procedure. The membranes were kept at −80° C. until use. Assay was performed in a 384 well Optiplate (PerkinElmer) in a total volume of 40 ul. Membranes were mixed with SPA beads.

Row | Binder | Ratio hCT/hAmylin binding
11 | B6 | 26

target: T4, human calcitonin receptor (human, UniProt P30988 25-474); assay: cell-based or functional assay
T4 sequence (looked up): T1 sequence (looked up) 1

Row | Binder | hCTR funct. EC50
12 | B7 | 10.1 nM
13 | B8 | 0.899 nM
14 | B9 | 1.97 nM

target: T5, human amylin receptor (amylin 3(a) receptor: human calcitonin receptor plus RAMP-3) (human, UniProt P30988 25-474; O60896 24-148, limits assumed); assay: cell-based or functional assay
T5 sequence (looked up) 1: T1 sequence (looked up) 1
T5 sequence (looked up) 2: T1 sequence (looked up) 2

Row | Binder | Ratio hCT/hAmylin funct. | hAmylin-R funct. EC50
15 | B7 | 17 ratio | 0.594 nM
16 | B8 | 10.2 ratio | 0.088 nM
17 | B9 | 17 ratio | 0.116 nM
